B1: GpH7-A5/GpH7-B3 variant L234_16H/GpL16-k0 (antibody, human IgG1, kappa)
heavy 1: not shown
heavy 2: not shown
light: DIVMTQSPLSLPVTPGEPASISCQASESLVHSNRNTYLHWYLQKPGQSPQLLIYKVSNRFSGVPDRFSGSGSGTDFTLKISRVEAEDVGVYYCSQNTHVPPTFGQGTKVEIERTVAAPSVFIFPPSDEQLKSGTASVVCLLNNFYPREAKVQWKVDNALQSGNSQESVTEQDSKDSTYSLSSTLTLSKADYEKHKVYACEVTHQGLSSPVTKSFNRGEC
notes: copies: 1 + 1 + 2
B2: GpH7-A5/GpH7-B3 variant K334_06M/GpL16-k0 (antibody, human IgG1, kappa)
heavy 1: not shown
heavy 2: not shown
light: B1 light
notes: copies: 1 + 1 + 2
B3: GpH7-A5/GpH7-B3 variant L234_06M/GpL16-k0 (antibody, human IgG1, kappa)
heavy 1: not shown
heavy 2: not shown
light: B1 light
notes: copies: 1 + 1 + 2
B4: GpH7-A5/GpH7-B3 variant K334_12R/GpL16-k0 (antibody, human IgG1, kappa)
heavy 1: not shown
heavy 2: not shown
light: B1 light
notes: copies: 1 + 1 + 2
B5: GpH7-A5/GpH7-B3 variant K334_13S/GpL16-k0 (antibody, human IgG1, kappa)
heavy 1: not shown
heavy 2: not shown
light: B1 light
notes: copies: 1 + 1 + 2
B6: GpH7-A5/GpH7-B3 variant K326_13S/GpL16-k0 (antibody, human IgG1, kappa)
heavy 1: not shown
heavy 2: not shown
light: B1 light
notes: copies: 1 + 1 + 2
B7: GpH7-A5/GpH7-B3 variant K334_18N/GpL16-k0 (antibody, human IgG1, kappa)
heavy 1: not shown
heavy 2: not shown
light: B1 light
notes: copies: 1 + 1 + 2
B8: GpH7-A5/GpH7-B3 variant L234_20W/GpL16-k0 (antibody, human IgG1, kappa)
heavy 1: not shown
heavy 2: not shown
light: B1 light
notes: copies: 1 + 1 + 2
B9: GpH7-A5/GpH7-B3 variant L234_10E/GpL16-k0 (antibody, human IgG1, kappa)
heavy 1: not shown
heavy 2: not shown
light: B1 light
notes: copies: 1 + 1 + 2
B10: GpH7-A5/GpH7-B3 variant L234_07I/GpL16-k0 (antibody, human IgG1, kappa)
heavy 1: not shown
heavy 2: not shown
light: B1 light
notes: copies: 1 + 1 + 2
B11: GpH7-A5/GpH7-B3 variant L234_18N/GpL16-k0 (antibody, human IgG1, kappa)
heavy 1: not shown
heavy 2: not shown
light: B1 light
notes: copies: 1 + 1 + 2
B12: GpH7-A5/GpH7-B3 variant K334_03V/GpL16-k0 (antibody, human IgG1, kappa)
heavy 1: not shown
heavy 2: not shown
light: B1 light
notes: copies: 1 + 1 + 2
B13: GpH7-A5/GpH7-B3 variant L234_14T/GpL16-k0 (antibody, human IgG1, kappa)
heavy 1: not shown
heavy 2: not shown
light: B1 light
notes: copies: 1 + 1 + 2
B14: GpH7-A5/GpH7-B3 variant L234_01G/GpL16-k0 (antibody, human IgG1, kappa)
heavy 1: not shown
heavy 2: not shown
light: B1 light
notes: copies: 1 + 1 + 2
B15: GpH7-A5/GpH7-B3 variant I336_13S/GpL16-k0 (antibody, human IgG1, kappa)
heavy 1: not shown
heavy 2: not shown
light: B1 light
notes: copies: 1 + 1 + 2
B16: GpH7-A5/GpH7-B3 variant I336_16H/GpL16-k0 (antibody, human IgG1, kappa)
heavy 1: not shown
heavy 2: not shown
light: B1 light
notes: copies: 1 + 1 + 2
B17: GpH7-A5/GpH7-B3 variant K326_20W/GpL16-k0 (antibody, human IgG1, kappa)
heavy 1: not shown
heavy 2: not shown
light: B1 light
notes: copies: 1 + 1 + 2
B18: GpH7-A5/GpH7-B3 variant K334_19Q/GpL16-k0 (antibody, human IgG1, kappa)
heavy 1: not shown
heavy 2: not shown
light: B1 light
notes: copies: 1 + 1 + 2
B19: GpH7-A5/GpH7-B3 variant I336_14T/GpL16-k0 (antibody, human IgG1, kappa)
heavy 1: not shown
heavy 2: not shown
light: B1 light
notes: copies: 1 + 1 + 2
B20: GpH7-A5/GpH7-B3 variant I336_19Q/GpL16-k0 (antibody, human IgG1, kappa)
heavy 1: not shown
heavy 2: not shown
light: B1 light
notes: copies: 1 + 1 + 2
B21: GpH7-A5/GpH7-B3 variant K326_18N/GpL16-k0 (antibody, human IgG1, kappa)
heavy 1: not shown
heavy 2: not shown
light: B1 light
notes: copies: 1 + 1 + 2
B22: GpH7-A5/GpH7-B3 variant L234_15Y/GpL16-k0 (antibody, human IgG1, kappa)
heavy 1: not shown
heavy 2: not shown
light: B1 light
notes: copies: 1 + 1 + 2
B23: GpH7-A5/GpH7-B3 variant K334_05P/GpL16-k0 (antibody, human IgG1, kappa)
heavy 1: not shown
heavy 2: not shown
light: B1 light
notes: copies: 1 + 1 + 2
B24: GpH7-A5/GpH7-B3 variant L234_02A/GpL16-k0 (antibody, human IgG1, kappa)
heavy 1: not shown
heavy 2: not shown
light: B1 light
notes: copies: 1 + 1 + 2
B25: GpH7-A5/GpH7-B3 variant K326_02A/GpL16-k0 (antibody, human IgG1, kappa)
heavy 1: not shown
heavy 2: not shown
light: B1 light
notes: copies: 1 + 1 + 2
B26: GpH7-A5/GpH7-B3 variant L235_01G/GpL16-k0 (antibody, human IgG1, kappa)
heavy 1: not shown
heavy 2: not shown
light: B1 light
notes: copies: 1 + 1 + 2
B27: GpH7-A5/GpH7-B3 variant K326_01G/GpL16-k0 (antibody, human IgG1, kappa)
heavy 1: not shown
heavy 2: not shown
light: B1 light
notes: copies: 1 + 1 + 2
B28: GpH7-A5/GpH7-B3 variant L234_03V/GpL16-k0 (antibody, human IgG1, kappa)
heavy 1: not shown
heavy 2: not shown
light: B1 light
notes: copies: 1 + 1 + 2
B29: GpH7-A5/GpH7-B3 variant I336_12R/GpL16-k0 (antibody, human IgG1, kappa)
heavy 1: not shown
heavy 2: not shown
light: B1 light
notes: copies: 1 + 1 + 2
B30: GpH7-A5/GpH7-B3 variant K334_16H/GpL16-k0 (antibody, human IgG1, kappa)
heavy 1: not shown
heavy 2: not shown
light: B1 light
notes: copies: 1 + 1 + 2
B31: GpH7-A5/GpH7-B3 variant K326_15Y/GpL16-k0 (antibody, human IgG1, kappa)
heavy 1: not shown
heavy 2: not shown
light: B1 light
notes: copies: 1 + 1 + 2

Each binder was assayed against T1, FcγRIIIa (human, UniProt P08637 17-208) (assay: SPR (Biacore);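 note: antibody variants captured on an SPR sensor chip, with FcγRIIIa passed over as analyte in HBS-EP+ buffer at 25 °C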).
T1 construct: extracellular domain; also called 3a; FcγRIIIa extracellular domain
T1 sequence (P08637 other isoform, or with tags, fused parts or gaps): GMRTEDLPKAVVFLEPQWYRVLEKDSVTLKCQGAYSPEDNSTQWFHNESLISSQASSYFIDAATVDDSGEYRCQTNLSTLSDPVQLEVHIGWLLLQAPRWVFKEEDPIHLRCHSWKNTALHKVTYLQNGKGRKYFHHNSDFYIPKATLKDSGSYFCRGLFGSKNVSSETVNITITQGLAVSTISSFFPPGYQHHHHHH

He/Con 3a	Binder
76.8 % of GpH7-A5/GpH7-B3/GpL16-k0	B1
149 % of GpH7-A5/GpH7-B3/GpL16-k0	B2
82.9 % of GpH7-A5/GpH7-B3/GpL16-k0	B3
93.5 % of GpH7-A5/GpH7-B3/GpL16-k0	B4
150 % of GpH7-A5/GpH7-B3/GpL16-k0	B5
118 % of GpH7-A5/GpH7-B3/GpL16-k0	B6
140 % of GpH7-A5/GpH7-B3/GpL16-k0	B7
103 % of GpH7-A5/GpH7-B3/GpL16-k0	B8
111 % of GpH7-A5/GpH7-B3/GpL16-k0	B9
99.5 % of GpH7-A5/GpH7-B3/GpL16-k0	B10
88.2 % of GpH7-A5/GpH7-B3/GpL16-k0	B11
154 % of GpH7-A5/GpH7-B3/GpL16-k0	B12
69.8 % of GpH7-A5/GpH7-B3/GpL16-k0	B13
55.8 % of GpH7-A5/GpH7-B3/GpL16-k0	B14
97.1 % of GpH7-A5/GpH7-B3/GpL16-k0	B15
92.8 % of GpH7-A5/GpH7-B3/GpL16-k0	B16

He/Con 3a	Binder
93.7 % of GpH7-A5/GpH7-B3/GpL16-k0	B17
140 % of GpH7-A5/GpH7-B3/GpL16-k0	B18
103 % of GpH7-A5/GpH7-B3/GpL16-k0	B19
88.4 % of GpH7-A5/GpH7-B3/GpL16-k0	B20
134 % of GpH7-A5/GpH7-B3/GpL16-k0	B21
126 % of GpH7-A5/GpH7-B3/GpL16-k0	B22
138 % of GpH7-A5/GpH7-B3/GpL16-k0	B23
69.7 % of GpH7-A5/GpH7-B3/GpL16-k0	B24
130 % of GpH7-A5/GpH7-B3/GpL16-k0	B25
56.7 % of GpH7-A5/GpH7-B3/GpL16-k0	B26
114 % of GpH7-A5/GpH7-B3/GpL16-k0	B27
88.3 % of GpH7-A5/GpH7-B3/GpL16-k0	B28
88.8 % of GpH7-A5/GpH7-B3/GpL16-k0	B29
138 % of GpH7-A5/GpH7-B3/GpL16-k0	B30
124 % of GpH7-A5/GpH7-B3/GpL16-k0	B31

Reference: patent US20260167699A1 (Chugai, published 2026)
